From US20250179192A1

Molecular target: KDR1-3 domains (UniProt P35968)
Assay: Octet BLI, KDR1-3 domains on biosensor, scFv in solution

Chain of KDR1-3 domains (P35968 20-327 limits assumed): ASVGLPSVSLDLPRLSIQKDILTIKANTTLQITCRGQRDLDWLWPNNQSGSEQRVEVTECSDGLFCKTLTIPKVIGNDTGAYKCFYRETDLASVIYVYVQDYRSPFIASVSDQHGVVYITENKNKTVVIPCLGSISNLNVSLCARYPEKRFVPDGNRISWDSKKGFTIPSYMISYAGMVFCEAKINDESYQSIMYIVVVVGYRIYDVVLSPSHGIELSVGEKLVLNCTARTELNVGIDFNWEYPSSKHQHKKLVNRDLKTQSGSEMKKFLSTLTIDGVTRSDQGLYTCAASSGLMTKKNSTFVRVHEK

koff: 0.000266 s⁻¹
B1: 6A6 (scFv form, off-rate screening) (scFv, from another filing, V domains shown)
VH: QMQLVQSGAEVKKPGASVKLSCKASGYTFSSYWMHWVRQAPGQRLEWMGEINPGNGHTNYNEKFKSRVTITVDKSASTAYMELSSLRSEDTAVYYCAKIWGPSLTSPFDYWGQGTLVTVSS
VL: SNFMLTQPPSVSVSPGKTARITCRGDNLGDVNVHWYQQRPGQAPVLVMYYDADRPSGIPERFSGSNSGNTATLTISGVEAGDEADYYCQVWDRTSEYVFGTGTKVTVLG
